Experiment [1] concerns the target T1, αAG98R-crystallin (human αA-crystallin G98R mutant) (human, UniProt P02489 1-173, G98R). Briefly: cross-linking; 200 µg biotinyl-Bpa peptide with 200 µg αAG98R, pH 7.2, 37°C, 1 hr; free peptide removed on a 10 kDa filter; photolysis at 365 nm, 30 min, 4°C; desalted on C18; MALDI-TOF/TOF mass spectrometry. The following applies: both partners purified.
Experiment [2] has as its target T1, αAG98R-crystallin (human αA-crystallin …). Briefly: cross-linking; 200 µg biotinyl-Bpa peptide with 200 µg αAG98R, pH 7.2, 37°C, 1 hr; free peptide removed on a 10 kDa filter; photolysis at 365 nm, 30 min, 4°C; SDS-PAGE and western blot for biotin (avidin-horseradish peroxidase). Conditions: both partners purified. (In western blotting, separated proteins are transferred to a membrane and probed.)

This note sets out measurements from PMC3435407 (PLoS ONE, 2012).

Non-standard residues stand in square brackets, D forms with d. No end group written: not given here. *: point of attachment. Biotin = O=C1N[C@H]2[C@H](CS[C@H]2CCCCC(=O)*)N1; Bpa = N[C@@H](Cc1ccc(C(=O)c2ccccc2)cc1)C(=O)O

T1 sequence (P02489 whole entry G98R): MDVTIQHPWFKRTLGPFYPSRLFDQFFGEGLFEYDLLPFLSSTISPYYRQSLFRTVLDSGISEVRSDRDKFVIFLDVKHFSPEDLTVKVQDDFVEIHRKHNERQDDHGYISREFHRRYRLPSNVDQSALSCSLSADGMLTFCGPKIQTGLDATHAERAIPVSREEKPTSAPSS

Consider Biotin-DFVIFLDVKH[Bpa]SPEDLTVK [Biotin-DFVIFLDVKH(Bpa)SPEDLTVK (biotinyl αA-mini-chaperone-Bpa peptide)], for which the “stoichiometry N” value in experiment [1] is 1 peptide per αAG98R monomer; in experiment [2], 1 peptide per αAG98R subunit.
